Non-standard residues stand in square brackets, D forms with d. No end group written: not given here. pS = N[C@@H](COP(=O)(O)O)C(=O)O
Key:
Test in all cases: cell-based or functional assay
[1] = target: p38 MAPK γ isoform, P53778
[2] = target: p38 MAPK δ isoform, O15264
[3] = target: p38 MAPK β isoform, Q15759
Sequence of p38 MAPK β isoform, Q15759 (Q15759 whole entry, canonical isoform): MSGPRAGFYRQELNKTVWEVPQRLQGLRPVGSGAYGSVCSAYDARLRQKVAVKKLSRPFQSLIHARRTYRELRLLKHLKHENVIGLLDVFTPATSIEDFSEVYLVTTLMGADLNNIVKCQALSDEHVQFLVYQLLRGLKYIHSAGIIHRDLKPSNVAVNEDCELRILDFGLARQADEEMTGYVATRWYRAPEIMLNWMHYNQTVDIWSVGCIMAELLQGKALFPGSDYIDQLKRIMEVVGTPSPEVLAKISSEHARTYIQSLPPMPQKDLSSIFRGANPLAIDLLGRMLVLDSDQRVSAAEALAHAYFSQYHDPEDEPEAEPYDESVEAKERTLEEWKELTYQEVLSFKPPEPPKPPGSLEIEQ

Sequence of p38 MAPK δ isoform, O15264 (O15264 whole entry, stated change not applied, canonical isoform): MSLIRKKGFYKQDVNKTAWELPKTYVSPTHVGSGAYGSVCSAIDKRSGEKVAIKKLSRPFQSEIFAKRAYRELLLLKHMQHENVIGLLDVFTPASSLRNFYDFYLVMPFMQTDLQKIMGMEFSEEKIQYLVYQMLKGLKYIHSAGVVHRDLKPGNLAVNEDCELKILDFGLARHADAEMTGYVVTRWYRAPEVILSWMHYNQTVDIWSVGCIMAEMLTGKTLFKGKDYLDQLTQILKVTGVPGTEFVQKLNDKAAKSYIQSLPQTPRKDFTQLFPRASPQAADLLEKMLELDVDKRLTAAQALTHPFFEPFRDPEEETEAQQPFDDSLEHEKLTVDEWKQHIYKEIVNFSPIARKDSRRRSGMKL
Sequence of p38 MAPK γ isoform, P53778 (P53778 whole entry, canonical isoform): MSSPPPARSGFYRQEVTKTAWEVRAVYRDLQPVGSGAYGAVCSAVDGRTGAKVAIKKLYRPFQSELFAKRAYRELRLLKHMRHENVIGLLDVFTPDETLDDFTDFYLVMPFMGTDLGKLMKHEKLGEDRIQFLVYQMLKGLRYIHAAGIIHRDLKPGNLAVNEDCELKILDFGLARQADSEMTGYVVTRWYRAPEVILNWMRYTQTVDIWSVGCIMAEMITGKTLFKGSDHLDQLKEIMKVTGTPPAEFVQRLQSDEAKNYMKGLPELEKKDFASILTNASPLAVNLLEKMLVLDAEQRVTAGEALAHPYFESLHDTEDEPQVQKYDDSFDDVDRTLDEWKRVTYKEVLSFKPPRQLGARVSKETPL

## YARAAARQARASPAARRA[pS]AILPG [NiPp polypeptide (Niban phosphopeptide), …(pS)AILPG]
[1]
  % inhibition in kinase profiling screen, NiPp at 100 µM: 3%
[2]
  % inhibition in kinase profiling screen, NiPp at 100 µM: 3%
[3]
  % inhibition in kinase profiling screen, NiPp at 100 µM: 5%

From patent publication US20220127313A1
